The record followed here is article PMC6947844.

B1: monoclonal antibody 40H3 (antibody, V domains shown)
VH: QVQLKQSGPGLVQPSQSLSITCTVSGFSLTNYGIHWLRQSPGKGLEWLGMMWRGGGTDYNAAFISRLTITKDTSKSQVFFRMNNLQTNDTAIYYCARKGVGMGLGYWGQGTSVTVSS
VL: DIQMTQSPASQSASLGESVTITCLASQTIGTWVAWYQQKPGRSPQLLIYGATNLADGVPSRFSGSGSGTKFSFKISSLQAEDFVSYYCQQLYSNPYTFGGGTKLEIK
B2: monoclonal antibody 1D9 (antibody, V domains shown)
VH: QVQLKQSGRSLVQPSQSLSITCTVSGFSLTDYGVHWIRQSPGKGLEWLGVIWRSGRTDYNAVFMSRLSITKDNSKSQVFFKMNGLQTDDTAIYYCAKNGPFGNFAGYWGQGTPVAVSA
VL: DIVMSQSPSSLAVSVGEKVTMRCRSSQSLLDSYHQKNYLAWYLQKPGQSPKLLIYWASTRESGVPDRFTGSGSGTDFTLTISSVKAEDLAVYYCQEYYRYPYTFGGGTKLEIK
B3: monoclonal antibody 11E11 (antibody, V domains shown)
VH: QVQLKQSGPSLVQPSQSLSITCTVSGFSLTNYGVHWIRQSPGKGLEWLGVKWRGGRTDYNAAFMSRLSITRDNSRSQVFFKMNSLQTDDTAIYYCAKNGPFGNFAGYWGQGTLVTVSA
VL: DIVMSQSPSSLAVSVGEKVSLTCKSSQSLLDNQKHYLAWYQQKPGQSPKLLIYWASTRESGVPDRFTGSGSGTEFTLTISSVKAEDLAVYYCQQFYNYPYTFGGGTKLEIK
B4: monoclonal antibody 4A4 (antibody, V domains shown)
VH: QVQLKQSGRSLVQPSQSLSITCTVSGFSLTDYGVHWIRQSPGKGLEWLGVIWRSGRTDYNAVFMSRLSITKDNSKSQVFFKMNGLLIEDTAIYYCAKNGPFGNFAGYWGQGTPVAVSA
VL: DIVMSQSPSSLAVSVGEKVTMRCRSSQSLLDSYHQKNYLAWYLQKPGQSPKLLIYWASTRESGVPDRFTGSGSGTDFTLTISSVKAEDLAAYYCQEYYRYPYTFGGGTKLEIK
B5: monoclonal antibody 11G3 (antibody, V domains shown)
VH: QVQLKQSGPSLVQPSQSLSITCTVSGFSLTNYGVHWVRQSPGKGLEWLGVMWRGGRTDYNAAFMSRLSITKDNSRSQVFFKMNSLQTDDAAIYYCAKNGPFGNFAGYWGQGTLVTVST
VL: DIVMSQSPSSLPVSVGEKVSLTCKSSRSLLDNQKHYLAWYQQKPGQSPKLLIYWASTRESGVPDRFTGSGSGTEFTLTISSVKAEDLAVYYCQQFYNYPYTFGGGTKLEIK
B6: monoclonal antibody 3D10 (antibody, V domains shown)
VH: QVQLKQSGPGLVQPSQSLSIICTVSGFSLTRNGVHWVRQSPGKGLEWVGVIWRSGRTDYDAAFMSRLSITKDNSKSQVFFKMNSLQADDTAIYYCVKNGDDGNYGTYWGQGTLVTVSA
VL: DIVMSQSPSSLGVSVGEKVTMSCKSSQSLLDSRNQKNYLAWYQQKPGQSPKLLIYWASTRESGVPDRFTGSGSGTEFTLTISSVKAEDLAIYYCQQYYNYPYTFGGGTKLEIT
B7: monoclonal antibody 9G11 (antibody, V domains shown)
VH: QVQLKQSGPGLVQPSQSLSITCTVSGFSLTRNGVHWVRQSPGKGLEWVGVIWRGGRTDYDAAFMSRLSITKDNSKSQVFFKMNSLQADDTAIYYCVKNGDDGNYGTYWGQGTLVTVSA
VL: DIVMSQSPSSLGVSVGEKVTMSCKSSQSLLDSRNQKNYLAWYQQKPGQSPKLLIYWASTRESGVPDRFTGSGSGTEFTLTISSVKAEDLAIYYCQQYYNYPYTFGGGTKLEIT

Where only a bound is given, the exact number is not on record here.

The target of one test is human wtEGFR on F98_(EGFR) cells (human) (UniProt P00533). Nature of the test: […], FACS buffer.
In the case of B1, the median fluorescence intensity was found to be 187 units.

The next test addresses wtEGFR at physiological levels on WI-38 cells (human (endogenous in WI-38)) (UniProt P00533). Nature of the test: […], FACS buffer.
B2: the median fluorescence intensity is under 100 units.
On the same count and under the same terms, the figure for B3 is under 100 units.
B4 gave a median fluorescence intensity of under 100 units.
On the same count and under the same terms, the figure for B1 is under 100 units; for B5 it is under 100 units; for B6 it is under 100 units.
B7: the median fluorescence intensity is under 100 units.
